These are literature values, as cited in publication PMC5433096.

A word on the Kd: it is a measure of binding affinity in units of concentration.

In this series the target is PhoB (Escherichia coli) (UniProt P0AFJ5).
UniProt P0AFJ5, sequence (P0AFJ5 whole entry): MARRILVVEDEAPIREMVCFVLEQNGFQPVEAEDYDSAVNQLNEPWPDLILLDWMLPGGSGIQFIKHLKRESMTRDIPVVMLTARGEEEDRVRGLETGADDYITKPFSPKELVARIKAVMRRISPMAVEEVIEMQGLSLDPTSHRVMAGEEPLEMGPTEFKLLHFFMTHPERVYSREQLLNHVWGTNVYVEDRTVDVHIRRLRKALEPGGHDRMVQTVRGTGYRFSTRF

On to PhoR (from UniProt P08400), for which the Kd was 3000 nM.
